This note sets out measurements from the DeepSol protein solubility set.

The data set in a line: soluble on expression in E. coli; label from the status in PepcDB or PDB records.
Regarding “MKVLIGGYTKKTSKGIYELPFIGEDNEAHLEKAENIISVGGPTYFQKDGDLVFTINNAGDEGGISAFKLSDHGSNEIDRHLTPGASPAYIGINKEKKLLYTANYHTAVLSVFQYSNSGKLALVAQTTHKAESLGPRPEQVDGPHPHFFDETPAGNLVSCDLGNDTVDFYRLENNELKHLAQYKNEAGFGDRHIVFSKDGNYFYVVGELSSQINVVKFNENTWEFEDIATYKTIPEDFTEHNGAAALYITNDGKYIYNSNRGHNSITVFKVNDDHTLSLIQRISTFGDFPRDFNWDETQKYVVAANQNTDNATLYLRNGGNGTLTPIQTEIPVPEGTRVLFTKLEHHHHHH”, the “soluble on expression in E. coli” value is reported as “not soluble”.

For the sequence “MGSDKIHHHHHHMIINKHVMRSTNEKQVLQQVINEGPISRSQISRNLSLNKVTVSDIYNQLLRTQFIKEIGCGVSTKNGGRKPVMAELNVNYGFVASIDMTADAVKLMYSRLNGKILHFQSFKTSDMTLTDVIDLIEDQLRNVDDYGTIHGLMGVAIALDGIIYENKILKTPIKGLTHFDLAKYLRDKLRIPVVLEKKANLTAVFERDFHDNEIFDNVVSVVVRDQIHAGIVADSRLYSGHEGEAGEVGTALLEDRHVEDHLASVNDYASEKALWARLKAIKHVERLDLTTVKHDYINHDPEVTKVFDDFVYYLSKVIANVSTAFAPDVVVLNTTVLEILPQLLTNVRESTAKLTSPSRQVPIIATKNVQSAALLGGASVIIHQALGLESLKMQFS”, the “soluble on expression in E. coli” value is “not soluble”. Regarding “MSAKQVSKDEEKEALNLFLSTQTIIKEALRKLGYPGDMYELMKEPQRMLTVRIPVKMDNGSVKVFTGYRSQHNDAVGPTKGGVRFHPEVNEEKVKALSIWMTLKCGIANLPYGGGKGGIICDPRTMSFGELERLSRGYVRAISQIVGPTKDIPAPDVYTNSQIMAWMMDEYSRLREFDSPGFITGKPLVLGGSQGRETATAQGVTICIEEAVKKKGIKLQNARIIIQGFGNAGSFLAKFMHDAGAKVIGISDANGGLYNPDGLDIPYLLDKRDSFGMVTNLFTDVITNEELLEKDCDILVPAAISNQITAKNAHNIQASIVVERANGPTTIDATKILNERGVLLVPDILASAGGVTVSYFEWVQNNQGYYWSEEEVAEKLRSVMVSSFETIYQTAATHKVDMRLAAYMTGIRKSAEASRFRGWV”, the “soluble on expression in E. coli” value was “soluble”. Turning to “MSLSLLSKFSRGVPSPALAHIAKRTFSSVNFSQILRRPQNSSLRLRLVRNISNSNPLPKMTEAGKNIVLKRHDLIVKGAQDAREYRGLELTNGIRVLLVSDPTTDKSAAALDVKVGHLMDPWELPGLAHFCEHMLFLGTAKYPSENEYSKFLAAHAGSSNAYTSSDHTNYHFDVKPDQLPGALDRFVQFFLSPQFTESATEREVCAVDSEHSNNLNNDLWRFLQVDRSRSKPGHDYGKFGTGNKQTLLEDARKKGIEPRDALLQFHKKWYSSDIMTCCIVGKEPLNVLESYLGTLEFDAIENKKVERKVWEEFPYGPDQLAKRIDVVPIKDTRLVSISFPFPDLNGEFLSQPGHYISHLIGHEGPGSLLSELKRLGWVSSLQSDSHTQAAGFGVYNVTMDLSTEGLEHVDEIIQLMFNYIGMLQSAGPKQWVHDELAELSAVKFRFKDKEQPMTMAINVAASLQYIPFEHILSSRYLLTKYEPERIKELLSMLSPANMQVRVVSQKFKGQEGNTNEPVYGTEMKVTDISPETMKKYENALKTSHHALHLPEKNEYIATNFDQKPRESVKNEHPRLISDDGWSRVWFKQDDEYNMPKQETKLALTTPMVAQNPRMSLLSSLWLWCLSDTLAEETYNADLAGLKCQLESSPFGVQMRVSNRREAERHASLTLHVYGYDEKQALFAKHLANRMTNFKIDKTRFDVLFESLKRALTNHAFSQPYLLTQHYNQLLIVDKVWSKEQLLAVCDSVTLEDVQGFAKEMLQAFHMELFVHGNSTEKEAIQLSKELMDVLKSAAPNSRPLYRNEHNPRRELQLNNGDEYVYRHLQKTHDVGCVEVTYQIGVQNTYDNAVVGLIDQLIREPAFNTLRTNEALGYIVWTGSRLNCGTVALNVIVQGPKSVDHVLERIEVFLESVRKEIAEMPQEEFDNQVSGMIARLEEKPKTLSSRFRRFWNEIECRQYNFARREEEVALLKTIKKDDVLELFDKKIRKDAAERRKLAVFVHGKNEDQEAVNTIIKKNAESGKKEKEVLYSDQLRQFLPLYGRPIAAIDLKPIGVDPLEHQETTKSKY”, the “soluble on expression in E. coli” value was “not soluble”. Consider “MANRSHHNAGHRAMNALRKSGQKHSSESQLGSSEIGTTRHVYDVCDCLDTLAKLPDDSVQLIICDPPYNIMLADWDDHMDYIGWAKRWLAEAERVLSPTGSIAIFGGLQYQGEAGSGDLISIISHMRQNSKMLLANLIIWNYPNGMSAQRFFANRHEEIAWFAKTKKYFFDLDAVREPYDEETKAAYMKDKRLNPESVEKGRNPTNVWRMSRLNGNSLERVGHPTQKPAAVIERLVRALSHPGSTVLDFFAGSGVTARVAIQEGRNSICTDAAPVFKEYYQKQLTFLQDDGLIDKARSYEIVEGAANFGAALQRGDVAS”, for which the “soluble on expression in E. coli” value is “soluble”.

Take “MSLAEGGFVDDAKASFNLRNFYINRNFVDPANPQGKAEEWTQSFILDARSGFTQGTIGFGVDMLGLYSLKLDGGKGTAGTHLLPVHDDGRPADDFGRLGVALKARLSQTELKVGEWMPVLPILRSDDGRSLPQTFRGGQLTSRELDGLTLYAGQFRGNSPRNDASMEDMFMQGRTGITSDRFNFAGGEYTFNDKRTMLGLWNAQLKDIYRQQYVNLVHSQPLGEWTLGANLGYFLGKEDGSARAGDLDNRTASAMLSARYKGHTFYIGLQKVSGDDAWMRVNGTSGGTLANDSYNASFDNAKERSWQLRHDFNFVTVGLPGLTLMNRYIKGDNVHTSAVDDGKEWARETELAYVVQSGVFKDLSVKWRNSTMRRDFSSNAFDENRVIVSYPLNLLEGHHHHHH”: the “soluble on expression in E. coli” value was “soluble”. The value for “MGSDKIHHHHHHMNALRLEDLISVEMLQKVQDNFSAAVGIAMIIVDERGTPVTRPSNFSAFCQTIRTSAARRDQCFQCDDDGGRRAMAMGEPSIYQCHCGLVDFAAPIIVRDQYLGAVISGQVRLRQGHEVTLEYIAPPDESWRQDAHLIALREKITEIPYVKLRSAAYTLYHLAAYLVEESYSNAVSQELSAKNLKLMEESKRRVELEKSLREAELQALSYQVNPHFLFNVLNTIGRLALKEHAPKTEDMLYAFADMMRYVLKKSRSQIVSLQTEVGHVRNYLHIQKVRMGDRFTFTMDVPAKYDGILCPFMVLHPIVENSINYAIEPHEADGRIEITARDDGLNMILRVVDNGDGVSPELVRAALDGVAEPHGRTSIGLHNVDSRLRHFFGPDYGLTVESPATPGGRHGRRDALSPGLRSLRHLNACAEERRLCTALSLLKTRNSSARRCAPF” was “not soluble”. Take “SIEKARSAAAKEVQKMKTSDKAEATHYLQMGAYADRQSAEGQRAKLAILGISSKVVGYQAGHKTLYRVQSGNMSADAVKKMQDELKKHEVASLIRSIESK”: the “soluble on expression in E. coli” value is “not soluble”. The value for “MGSDKIHHHHHHMQSTALRYFLEVARCGSISEASVRLNVASSAVSRQISKLERELDALLFERQARGMMLSEAGIRLAAYARKSQLEAEQVVLEITELQGLQRGHVRIACSEGFALDFLPQCIARFRRLYQGIHFSMEVCAPAQATERVRSGDADLCLTFSLTPQNEIKVEHIHSGAICAVVSHNHPLASRKEVALAELQPYAIALTNTDTTLRQLFDICCGVQGLMFDPVLTSNYIGSLLRFVSEEGGISLSSEMTLDKRVHEKQLKSLPISDEGMKARRIELQSMAGRNLPAAVAAFRDFLIEELAKT” was “not soluble”; that for “SVGHLHLQAMGDTREQSRDGLLDSPDSGLPPSPSPSPPFYALSPGTLDTRTTTEAPAAPSLFQTPPALEMRSRLLPVFFGESIEVDPEPAHEIRCNSEITYASERYFRDKIFYAPVPTVTAYSETIVAAPNCTWRSYRSQLTLEPRPRALRFGSTAIIFPKLARSSFRTTLHCSLGQPRHWYSSSLQLRRCGDPTPGPSCPDVL” was “soluble”; that for “MGSDKIHHHHHHMFRLAKEELEKLGAMITATEIYQQPGLWKEAHQLYFDQLEKIESFLKSIKEKHDFVHVVFTGAGTSDFVGQSIANYLNQVNDLKHIRFSAIGTVELVSRPHDYLQADLPTILVSFARSGNSPESVAAVEVAKQLVDKLYQVTITCAPEGKLALAAEGDVENLLLLQPAGSNDKGFAMTGSYSCMALTALLVFSPASQEEKAAWVEIIARLGQDVLDREDYVQDLINLDFERVIYLGSGGFYGLAHEAQLKILELTAGKIATMYESPLGFRHGPKSFINEKTLIFLFASNDAYTRQYDVDLLNEVHGDGIAERIVALSADKLVGTEAANFVLAEGGADLPDVFLTFPYILFAQTVSIMAAIKCNNLPDTPSPTGTVNRVVQGVIIHPLEK” was “not soluble”.

For the sequence “MPRAVAERGDVVPVLAEVFRSHGFDGASLAVITEHTGLGKGSLYNFFPRGKDEMAEAVLDEVDAWFQTAVYLPLRGSEPAAARLERMFDEVETYFRSGRRICLFGAFALGLERDRFADRVRAYFTDWVDSLAGALADAGHGRPSRPLAEEVVAGIQGALVLARALDDPDSFTRILTRLRRSVGDPTTSRA”, the “soluble on expression in E. coli” value is reported as “soluble”. The value for “RRNINVVLHEDSKALDEVVIVGYGKQKKESVVVSMSSIKPKDIVVPSRSLNNSLAGQVAGLIAVQRSGEPGYDNAEFWIRGVSTFAGGTSPLVLVDGVPRNMSDIEPDEIETFSVLKDAAATAIYGAEGANGVVLVTTKRGRVEK” was “not soluble”; that for “GSPGLKGDKGIPGDKGAKGESGLPDVASLRQQVEALQGQVQHLQAAFSQYKKVELFPNGQSVGEKIFKTAGFVKPFTEAQLLCTQAGGQLASPRSAAENAALQQLVVAKNEAAFLSMTDSKTEGKFTYPTGESLVYSNWAPGEPNDDGGSEDCVEIFTNGKWNDRACGEKRLVVCEF” was “soluble”.

With “RPPLQEYVRKLLYKDLSKVTTEKVLRQMRKLPWQDQEVKDYVICCMINIWNVKYNSIHCVANLLAGLVLYQEDVGIHVVDGVLEDIRLGMEVNQPKFNQRRISSAKFLGELYNYRMVESAVIFRTLYSFTSFGVNPDGSPSSLDPPEHLFRIRLVCTILDTCGQYFDRGSSKRKLDCFLVYFQRYVWWKKSLEVWTKDHPFPIDIDYMISDTLELLRPKIKLCNSLEESIRQVQDLEREFLIKLGLVN”, the “soluble on expression in E. coli” value was “soluble”. The value for “MGSDKIHHHHHHMAIETILVINKSGGLIYQRNFTNDEQKLNSNEYLILASTLHGVFAIASQLTPKALQLTQQTNIENTIPYIPYVGMSSNRSDTRNGGGNNNKHTNNEKLGSFKGDDFFKEPFTNWNKSGLRQLCTDQFTMFIYQTLTGLKFVAISSSVMPQRQPTIATTDKPDRPKSTSNLAIQIADNFLRKVYCLYSDYVMKDPSYSMEMPIRSNLFDEKVKKMVENLQ” was “not soluble”; that for “MGSDKIHHHHHHMKRLSPEVFKVPIDRIRNGYYSDIYFINYVKVLKRDSRHPRVYYQFFPRKDAVICGIDEALAILKFCTGYYKDEEKARELFEEILKLDKEMQAASVEMDVQKILELTQKKWDLRLKLNDLWVDKWDEIEVHALYDGEEAKEGEPIMTIEGDPTYFGYLETVLLGVIARATSTATAVKKVVKAARGKPVLFFSARFDHYWVQATDGYAALKAGAFGVSTDANADYWGVKSMGTMPHALIACYDGKTEDAAIAFDRHMEEDVNRIVLVDWDNDVIGTTFRVIEKFYEYVMKKPFKLGVTDPSPIIGPGKNKIWGVRFDTSGNLRDKSVVPKDESSFGVCPELVWRARQEFDKVGLRDLKIVVSGGFDEKKIDLFERLGVPADAYGVGSRLLREKVDITADIVEVNGRHCAKVGRYKIENPRLKKVGKRYWEEE” was “not soluble”; that for “GAMRIMRPDDANVAGNVHGGTILKMIEEAGAIISTRHCNSQNGERCVAALARVERTDFLSPMCIGEVAHVSAEITYTSKHSVEVQVHVMSENILTGTKKLTNKATLWYVPLSLKNVDKVLEVPPIVYLRQEQEEEGRKRYEAQKLERMETK” was “soluble”. The value for “KYQLMANDPVQYKALGKMLGSMGRSDPNEIAPLYFSELMAALKKCATRRTHTNVLQHLCGYLKQTISAEDKQEIQEVIGQYHQGIVPLIVPLTLLKHHFRQHPDPYVALQVYMQPHP” was “not soluble”.
